# From article doi:10.1101/054106
# Biological target: potato ADP-glucose pyrophosphorylase (AGPase) small subunit, wild type (potato (S. tuberosum)) (UniProt P23509)
# Test: native gel or EMSA
# potato ADP-glucose pyrophosphorylase (AGPase) small subunit, wild type (potato (S. tuberosum)), sequence (P23509 73-521): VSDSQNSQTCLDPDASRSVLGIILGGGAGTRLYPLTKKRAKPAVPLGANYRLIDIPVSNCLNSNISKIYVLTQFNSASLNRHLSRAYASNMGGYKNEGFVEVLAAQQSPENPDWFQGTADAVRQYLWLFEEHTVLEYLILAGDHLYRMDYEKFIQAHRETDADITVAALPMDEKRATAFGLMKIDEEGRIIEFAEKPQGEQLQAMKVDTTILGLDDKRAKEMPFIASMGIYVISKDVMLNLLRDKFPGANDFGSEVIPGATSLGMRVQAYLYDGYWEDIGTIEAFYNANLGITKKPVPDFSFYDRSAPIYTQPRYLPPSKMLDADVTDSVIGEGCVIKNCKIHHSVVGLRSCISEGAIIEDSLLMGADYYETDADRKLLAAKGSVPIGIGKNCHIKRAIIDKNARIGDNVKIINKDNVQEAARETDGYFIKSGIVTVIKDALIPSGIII
percent in the form of heterotetramers,percent of total band intensity in the dimer band,Substance
90%,,"potato ADP-glucose pyrophosphorylase (AGPase) large subunit, E370G mutant (enzyme)"
,40%,"potato ADP-glucose pyrophosphorylase (AGPase) large subunit, E370R mutant (enzyme)"
